Results as given in the supplement of paper PMC10899765.

Key:
Settings in all cases: 20 nM; 72 h
[1] = tested on: MCF10A; assay: one-nucleolus phenotype percent effect (relative to siNT 0% and siNOL11 100%); higher = more cells with one nucleolus (ribosome biogenesis inhibition)
Experimental: (§1)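 After 72 h, cells were fixed and stained with Hoechst and anti-fibrillarin, and nucleoli per nucleus were counted with CellProfiler. Values are plate-adjusted percent effect for the one-nucleolus and 5+ nucleoli phenotypes, normalised to siNT (0%) and to the positive controls siNOL11 or siKIF11 (100%), as the mean of biological triplicates. Percent viability is the nuclei count relative to siNT.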

[2] = tested on: MCF10A; assay: percent viability (nuclei count relative to siNT); higher = more viable cells
Experimental: as §1

[3] = tested on: MCF10A; assay: 5+ nucleoli phenotype percent effect (relative to siNT 0% and siKIF11 100%); higher = more cells with five or more nucleoli
Experimental: as §1

Sequence	one-nucleolus phenotype percent effect [1] [%]	percent viability [2] [%]	5+ nucleoli phenotype percent effect [3] [%]
AUGUCCCACCCCCACUCCUGU [hsa-miR-4433b-5p]	55.5	28.3	-37.3
UACGUCAUCGUUGUCAUCGUCA [hsa-miR-598]	-26.8	151	47.8
CUCCUAUAUGAUGCCUUUCUUC [hsa-miR-337-3p]	-11	52	2.51
GGCUGAGUGGGGUUCUGACUCC [hsa-miR-8077]	-3.93	31.9	-6.36
CUGGGGGUGGGGGGCUGGGCGU [hsa-miR-6803-5p]	-13.5	86.6	16
CGUGUUCACAGCGGACCUUGAU [hsa-miR-124-5p]	6.24	77.3	-28.6
AAACUAAUCUCUACACUGCUGC [hsa-miR-3129-3p]	-4.83	98.8	5.92
GGGGGCCGAUACACUGUACGAGA [hsa-miR-128-2-5p]	-25.2	91.1	34.6
UCCGGUUCUCAGGGCUCCACC [hsa-miR-671-3p]	54.3	15.2	-33.5
UAGAGUCUGGCUGAUAUGGUUU [hsa-miR-5007-5p]	14	49.3	-8
UCGGGGAUCAUCAUGUCACGAGA [hsa-miR-542-5p]	1.02	81.9	30.4
UGUGCGCAGGGAGACCUCUCCC [hsa-miR-933]	4.65	78.3	-8.45
AGCAUACACCUGUAGUCCUAGA [hsa-miR-5689]	0.904	66.7	2.26
AAAGUGCAUCUUUUUAGAGGAU [hsa-miR-519c-3p]	-25.5	119	110
UAGGCAGUGUAUUGCUAGCGGCUGU [hsa-miR-449c-5p]	17.4	17.7	-19.5
AUCCCCAGAUACAAUGGACAA [hsa-miR-2355-5p]	1.32	68.5	-14.8
UCUGUGGAGUGGGGUGCCUGU [hsa-miR-7114-5p]	15	16	7.56
CAGGGCAGAGGGCACAGGAAUCUGA [hsa-miR-6735-5p]	11.3	31.9	-26.5
CGCCCCUCCUGCCCCCACAG [hsa-miR-4749-3p]	-18.4	115	64.3
UAUUGCACUCGUCCCGGCCUCC [hsa-miR-92b-3p]	-7.61	76.9	2.75

Sequence	one-nucleolus phenotype percent effect [1] [%]	percent viability [2] [%]	5+ nucleoli phenotype percent effect [3] [%]
AGCCGCGGGGAUCGCCGAGGG [hsa-miR-3648]	-17.8	88.3	19.7
AGGAGGCAUCUUGAGAAAUGGA [hsa-miR-3612]	33.4	16.9	5.34
AACAACAAAAUCACUAGUCUUCCA [hsa-miR-3529-3p]	14.9	44.1	0.722
CCUUCACUGUGACUCUGCUGCAG [hsa-miR-6837-3p]	-30.8	180	50.7
CCAGGGGGAUGGGCGAGCUUGGG [hsa-miR-6798-5p]	-16.7	77.9	13.9
CAUACAAUCUGACAUGUAUUU [hsa-miR-4666a-3p]	-4.04	66.1	15.8
AUUGUUCUGUCUUUCUCCCAG [hsa-miR-6739-3p]	7.82	27.3	-25.7
GCAGAGUGCAAACAAUUUUGAC [hsa-miR-759]	-27.2	90.2	51.1
UCAGCAGGCAGGCUGGUGCAGC [hsa-miR-3619-5p]	56.3	27.1	-36.5
AGUGGGAGGCCAGGGCACGGCA [hsa-miR-1233-1-5p]	24.3	26.5	-38.8
AAAUAUAUAUAUAUAUGUACGUAU [hsa-miR-1277-5p]	-29.6	47.1	64.2
UGCGUUUCUCCUCUUGAGCAG [hsa-miR-6854-3p]	21.3	23.5	-12.2
CUCCCCUCUCUUUCCUGUUCAG [hsa-miR-6826-3p]	0.6	52.3	-9.68
UGGACCUCUCCUCCCCAG [hsa-miR-6861-3p]	2.35	40.5	7.71
UUGCAGCUGCGGUUGUAAGGU [hsa-miR-5047]	11.1	36.3	-30.3
ACUGCCCCAGGUGCUGCUGG [hsa-miR-324-3p]	-7.87	68	37.7
UCUGUGCUACUGGAUGAAGAGU [hsa-miR-7157-3p]	-22.7	92.3	36.4
AUCCAGUUCUCUGAGGGGGCU [hsa-miR-5195-3p]	13.3	46.4	2.52
UUUAGUGUGAUAAUGGCGUUUGA [hsa-miR-3591-5p]	11.5	39.6	0.56
UCCCAAGGGUGAGAUGCUGCCA [hsa-miR-6814-5p]	7.66	48.6	-13.3

Sequence	one-nucleolus phenotype percent effect [1] [%]	percent viability [2] [%]	5+ nucleoli phenotype percent effect [3] [%]
CAGCAGUGCGCAGGGCUG [hsa-miR-4519]	8.95	27.2	8.89
UGAGGGAGUUGGGUGUAUA [hsa-miR-6129]	18.8	24.3	-7.69
AGUUUGGGAUGGAGAGAGGAGA [hsa-miR-6740-5p]	-20.1	83.1	24.1
UGAGUAUUACAUGGCCAAUCUC [hsa-miR-496]	11.1	42	-15.6
CCAUGAAGCAGUGGGUAGGAGGAC [hsa-miR-8060]	6.65	43.2	14.9
AUCUGACCUGAUGAAGGU [hsa-miR-4256]	30.3	11.7	5.64
AGAGCUCACAGCUGUCCUUCUCUA [hsa-miR-3670]	17.6	25.7	-9.38
CGGCGCCCGUGUCUCCUCCAG [hsa-miR-6789-3p]	-9.93	59.9	32.6
UGUCUCUCGCCCUUGGCCUUAG [hsa-miR-6895-3p]	34.7	19.4	-32.5
UUGGGACAUACUUAUGCUAAA [hsa-miR-1302]	-3.28	46.9	-1.97
UGAGCUGCUGUACCAAAAU [hsa-miR-558]	6.73	65.1	0.086
UAUGUAGUAGUCAAAGGCAUUU [hsa-miR-7852-3p]	-3.81	81.4	-8.45
ACUGAAUCCUCUUUUCCUCAG [hsa-miR-5187-3p]	-12.2	67.9	0.116
UGUCUGCCCGCAUGCCUGCCUCU [hsa-miR-346]	31	32.5	-26.4
UUGAGGGGAGAAUGAGGUGGAGA [hsa-miR-6734-5p]	-5.42	35	2.95
UUCCAUGCCUCCUAGAAGUUCC [hsa-miR-5581-3p]	-19.3	57.3	13.6
UACUCAGGAGAGUGGCAAUCAC [hsa-miR-510]	41.9	20.5	-26.8
UUGCAGCUGCCUGGGAGUGACUUC [hsa-miR-1301]	26.9	49	-32.5
UCGUAUCAGAGAUUCCAGACAC [hsa-miR-6506-3p]	5.43	85.1	-11.2
